Assay results: the DeepSol protein solubility set

Assay: soluble on expression in E. coli; label from the status in PepcDB or PDB records
With “MGSDKIHHHHHHMAQKNNNVIPMTFDDAFYRKMAKQKFKQREYKRAAEYFEKVLELSPDDLEIQIDYAQCLVQLGIAKKAEHLFYDNIIYNRHLEDSFYELSQLNIEVNEPNKAFLFGINYVIVSDDQDYRDELDQMFDVKYQSEEQIELEAQLFVVQILFQYLFSQGRLKDAKNYVLHQPQEVQDHRVVRNLLAMCYLYLGEYDTAKALYEALLQEDSTDIYALCHYTLLLYNTKENEQYQKYLKILNKVVPMNDDESFKLGIVLSYLKQYRASQQLLYPLYKKGKFLSIQMYNALAYNYYYLGEEDESHYYWDKLKQISKVEIGHAPWVIENSKEVFDQHILPLLQSDDSHYRLYGIFLLDQLNGKEIVMTESIWQVLENLNNYEKLYLTYLVQGLTLNKLDFIHRGLLTLYQNELFVSENDLMVAWINQGELIIAEKVDLTDVEPYIGAFIYLYFKNQPRNVTKKQITTWLGITQYKLNKMIEFLLSI” the “soluble on expression in E. coli” value was “not soluble”. In the case of “AKGEVWEAKPVGAAALPQWIRGRLDKIGLGIEADALALFAERVEGNLLAARQEIDKLGLLYPKGHTVNIDEAQTAVANVARFDAFQLAGAWMKGDVLRVCRLLDGLREEGEEPVLLLWAVAEDVRTLIRLAAALKQGQSIQSVRNSLRLWGDKQTLAPLAVKRISVVRLLDALKTCAQIDRIIKGAEDGDAWTVFKRLVVSLAE”, the “soluble on expression in E. coli” value is reported as “soluble”. With “MGIPKEGEFVTIQSYKHDGHLHRTWRDTMVLKTSEYSLIGVNDHTLVTESDGRRWVTREPAIVYFHKKYWFNIIAMIREKGVSYYCNLASPYVLDDEALKYIDYDLDIKVFPDGEKRLLDVDEYEFHSKLMDYPEDIDFILKENVKTLVDWINNEKGPFSPEYVDIWYQRYQQLSKK” the “soluble on expression in E. coli” value was “not soluble”. With “MDLVDPLAEPCAVCGDKSTGTHYGVISCNGCKGFFRRTVLRDQKFTCRFNKRCVIDKNFRCACRYCRFQKCVQVGMKREAIQFERDPVGSPTSGASLNGTPFKKDRSPGYENGNSNGVGSNGMGQENMRTVPQSSSVIDALMEMEARVNQEMCNRYRRSQIFANGSGGSNGNDTDIQQGSDSGASAFAPPNRPCTTEVDLNEISRTTLLLMVEWAKTINPFMDLSMEDKIILLKNYAPQHLILMPAFRSPDTTRVCLFNNTYMTRDNNTDLNGFAAFKTSNITPRVLDEIVWPMRQLQMREQEFVCLKALAFLHPEAKGLSNSSQIMIRDARNRVLKALYAFILDQMPDDAPTRYGNILLLAPALKALTQLLIENMTLTKFFGLAEVDSLLSEFILDDINDHSTAPVSLQQHLSSPTTLPTNGVSPLNPAGSVGSVSSVSGITPTGMLSATLAAPLAIHPLQSQDSILNSEQNNHML” the “soluble on expression in E. coli” value was “soluble”. With “MSLSEPILFVDDEQHVLNALQRVFSESGLETVFTRSPIEALELCRSKKFAVIVSDNMMPEMKGIELLTRIKEESPETVKCLLTAHADLDTALQAINSGEVFRFIVKPWRNEELYQAVSEGVARFREGHHHHHTDPNSSSVDKLAAALEHHHHHH” the “soluble on expression in E. coli” value was “soluble”. With “MIPLVAPRSVIERVEAICREAGGILRVAPYRRLQVGLITTGSEVYKGRIKDAFGPVVRAKIASYGSEVALEKVVPDDAAAIHDAIEEMLAAGMQMVVLTGGMSVDPDDVTPDGIRRSGAEVVTYGAPVLPGAMFMLAYRGDVPIMGLPGCVMYYRATVFDLVLPRILVGERLEHHHHHH” the “soluble on expression in E. coli” value was “not soluble”. In the case of “MLTDQEKIDLVNALDFVVIEPHTQSIYVHNDEKTNGVLAKVLHTISVDEYIESFKKGSLIDIFPAAMQEAGAEGFKDGQFVIMPKKFYVDQCYAMSKEIERLTNLNNLHNIKPNTYQGLIHLEHHHHHH”, the “soluble on expression in E. coli” value is reported as “soluble”. In the case of “MVKLTSIAAGVAAIAATASATTTLAQSDERVNLVELGVYVSD”, the “soluble on expression in E. coli” value is reported as “not soluble”. For “MSLTRKKEDPGHSGRADRAARLSKASTHHAQHRQQPQRTRHERPRHAGHVAGKLYQLEVSEALISSVTDAVLDNVHAWQSRPLAAQRAENQRLIPD”, the “soluble on expression in E. coli” value was “soluble”. In the case of “MGSDKIHHHHHHMKTFHNEEIYIKTDNFSDSIFKENTMFFDIETTGFSPVKAIVYMIGCARRIKNRIVIDQYFAESVDDEAAVIEAFAGSLSGCSTIISFNGVGFDIPFLKNKYKKYKQEDPFCNVQILDIFKELSPIKPLLCLENYKQKSIEAFLGIDREDKYSGGELINVYYEYLAQKDDEKLSLLLTHNYEDVLGMTKLLSILSYKECIHGIADITGVSVNPYTAYDGSLMNELIISFENKFSVPKSVSFHDNDIYLTIGTTKSYVRAEIFEGEMRHFYSDYKNYYYLPKEDMAIHKSVAAYVDHEYREKCKAYNCYVRKTGTFIRQYSDFMKPEFRFDIKDKYSYFLLTEDFINSKQMVLSYVKHITDHLFNL”, the “soluble on expression in E. coli” value is reported as “not soluble”. In the case of “MAHHHHHHMVLTSDRGWPYSWERGESGILPDCYLNSEVERVWQIVKKDLTKLFSSHGKNKPSCHPRVLIGTPGIGKSMNVGSYLLYQLLHYDVEQLPMVVYFIANLTFLFDKTAKMVSLYTNEASILRILDGLPDRGFKGHIIYDVAMKGHQPSIGLPCKGWGMIVVTPPDKNNHEWWAKQMGAEEFIINCPEENDVRAMCIWMKRNRPLQEQAEYWKEVNGRMNKVGPILRFIFGKQAYDDRIKACQQALDGMNASKFEGYLDIGYCCVSNDSDLSRKLVKVVRVRRGYNFASPLNVLISPHLERETLSRLEDGMKQSDFIFFVLRFWDYVPPYLIEKYAVSAFLNDDFLRAIRLKIKELWPPGRRESHRCALKEHSDTSFARKEVLPPPERLSNPVAMDHWVLYEPKVQNFPLVDGFFFVDSNPKTLVGLRMTTAGGHRTTTRTVRRFTE”, the “soluble on expression in E. coli” value is reported as “not soluble”. For “MDINLEYSLHDTQFFWQALSIRYHHAQRLKQLQRELAGFEQIKKFTLLPEAFSMEAGLITPTLKQRCKMIYHKYAHEINAMYNNLEHHHHHH”, the “soluble on expression in E. coli” value was “not soluble”. In the case of “MGSDKIHHHHHHMELVVDAHELKEWVYLLDKLVGTTEPTARFLSFFYRDGLWVSASDNCAKVEIFLGEIPRFEGSRIVSLDLVKYFLSDVKVSDVRITVLQERLVLKAGNEVLDVRCKTGEIPPGDGEEEFLCTLTKREFEGALNFASSNLDEGEFLILLFEEKDVLMFGASAGIMTLAQISTIPKKPFSTKIPYVTVRHIFKAFQRLDVQTLDFYEKSGKLVVKYPHFVMEVCGDEVSEEEIKKLKSLLEEKTAERIEARRQVLAKLVRKAAVLSRGDYATISRRGENLKVQVKRKNLSYTAELFVESGRDFVVVFPSKKLRSALARMDTERIFLEITERFLKISNFSGTRVIYLELEEFF”, the “soluble on expression in E. coli” value is reported as “not soluble”. For “MGSDKIHHHHHHMRNILIALCLSLTALNSHAADQIERMAADKMQSYKESKINWKDDPILPKGAKSALILGDPSKPGVFIAWLKFPANYPIPAHTHPFTEVITVLKGKLGNGMGEVLDKKKGETLNVGESFVLPAGHAHYVWTGNEETIIELIATGPWDITYSNPKDDPRTK”, the “soluble on expression in E. coli” value was “not soluble”. With “MVSKNKKLNLKDKYQYLTRDMAWEPTYQDKKDIFPEEDFEGIKITDWSQWEDPFRLTMDAYWKYQAEKEKKLYAIFDAFAQNNGHQNISDARYVNALKLFISGISPLEHAAFQGYSKVGRQFSGAGARVACQMQAIDELRHSQTQQHAMSHYNKHFNGLHDGPHMHDRVWYLSVPKSFFDDARSAGPFEFLTAISFSFEYVLTNLLFVPFMSGAAYNGDMATVTFGFSAQSDEARHMTLGLEVIKFILEQHEDNVPIVQRWIDKWFWRGFRLLSLVSMMMDYMLPNKVMSWSEAWEVYYEQNGGALFKDLERYGIRPPKYQDVANDAKHHLSHQLWTTFYQYCQATNFHTWIPEKEEMDWMSEKYPDTFDKYYRPRYEYLAKEAAAGRRFYNNTLPQLCQVCQIPTIFTEKDAPTMLSHRQIEHEGERYHFCSDGCCDIFKHEPEKYIQAWLPVHQIYQGNCEGGDLETVVQKYYHINIGEDNFDYVGSPDQKHWLSIKGRKPADKNQDDA” the “soluble on expression in E. coli” value was “soluble”. In the case of “MGSDKIHHHHHHVAPPTKGGLAEAENKMENKMTEQQGYWIGEAGKPWGEAEKAKWRAAQQKKRSYEQEVLSKFSQVSESFEAQQYGELNYAEGQYPLYGFKSRDWDQEKPTILVTGGVHGYETSGVQGALRFLIAKAAEYSQDFNILVAPCVSPWGYETINRWNPEAIDPNRSFYADSPAQESRALMQWVASFNLPLMAHIDLHETTDTDNSEFRPALAARDAKVQTNWNIPDGFYLVGDSENPNDEMQAAIIAAVGKVTHIAPADEQGRLIGEPITQFGVINYATKALGLCSGFSDARYNTTTEVYPDSPLVDDENCIQAQVMAVSSALDYIRSQG”, the “soluble on expression in E. coli” value is reported as “not soluble”. In the case of “MGQSLPLHLLKYPSKFSINIYAAPVSDAREMALGSKDIVFVGSRSAGKVYAVIPDKKNSHGTRVLTIASGLNMPNGVAFHKGALYVAEIGRILRFDNIESNLNNPPEPVVVTTKLPKEKAHGWRFISFGPDDKLYIGIGAPCNVCLMEDPRYATIMRMNTYGQDLEIYARGIRNTVGFDWDPLHHNLWFTDNGRDWLGDNLPPDELNVAPRKGMDFGFPYCYGKSTVDPVYGKIHSCSEFTPAVFEFPAHVAPLGMSFYTGKLFPSNYWGQIFISEHGSWNRSHKIGYQVTTVKIKNNHVTEVKPFISGWLQGEKAWGRPVDTLVMPDGSLLISDDYANVIYRVSYQLEHHHHHH”, the “soluble on expression in E. coli” value is reported as “not soluble”. For “LEANEGSKTLQRNRKMAMGRKKFNMDPKKGIQFLVENELLQNTPEEIARFLYKGEGLNKTAIGDYLGEREELNLAVLHAFVDLHEFTDLNLVQALRQFLWSFRLPGEAQKIDRMMEAFAQRYCLCNPGVFQSTDTCYVLSYSVIMLNTDLHNPNVRDKMGLERFVAMNRGINEGGDLPEELLRNLYDSIRNEPFKIPEDDGND”, the “soluble on expression in E. coli” value was “soluble”. With “MLSFLQSFFKSLGYEDYFKPIAPSSPRFFTKYCNETQKKITIVIDSNNIIRPFVFDESNEREPLFVAHLGCSECMRWNRMYGENIAENNEPETDSEDETDYESETSDSELGQDSPNPNLSEALNNCIENFDQLVDEVVRHKDFHERSQLLRVLEECLGNMNSFLQNENLTVDDISTGACALLNETAEKLKQMFSSSGISGRKESSEGTNKDLIKFGELEIRGDEEEDDDDESYVEGEEEDSSDEDLDDEDQEGESSIEPRLSETFKKSEARESLSSKEAPVKDLVIYQKFRDEHEDLEESENEPRMSDEAEKLVEDKIIEESDEDSFDIIGRDEELDDDSNGKEEEELELDVTQEDSEDDEQFFSL” the “soluble on expression in E. coli” value was “not soluble”. In the case of “SNNCKENFLTSRYNKPVDEKQYNIPGKVTITTLQNIPVIYKRIVGSYKELELTNPLSELFQYGMEHDLLDKDSSFPLTIYHSHPDITTADNQRASSCIIIKQNVKQLDSEEIGLMEIPSGLYGVIHFEIRQKEYPDAWDFVYGNWLPSSGYLPANSFPFEVYLNNPLEDPLQKHIVDIYIPIEPIN”, the “soluble on expression in E. coli” value is reported as “not soluble”. In the case of “MGHHHHHHSHMTRVKLQDGVHIIKETKEEVTPEQLKLMRTQDVKYIEMKRVAEAKKIERLKSELHLLDFQGKQQNKHVFFFDTKKEVEQFDVATHLQTAPELVDRVFNRPRIETLQKEKVKGVTNQTGLKRIAKERQKQYNCLTQRIEREKKLFVIAQKIQTRKDLMDKTQKVKVKKETVNFPAIYKFQSRRKR”, the “soluble on expression in E. coli” value is reported as “not soluble”. For “MEKDDATASFSPSFSTYSGDRLVEIAERVCYKEKSDAEFEFSTAATSSSGDGGLVFPVFNKNLISGDVSPEKVIPLKDLFLRERNDQQPPQQTYSSSSDEEEEDDEFDSIPSEIYCPWTPARSTADMSPSGGCRKSKSTGSSSTSTWSTKRWRLRDFLKRSKSDGKQSLKFLNPTNRDDDDESSKSKKKVSVSVTVSAHEKFYLRNKAIKEEDKRKSYLPYKQDLVGLFSNIHRYGKTFPPF”, the “soluble on expression in E. coli” value was “not soluble”.
